Data reported in patent US20190194324A1 (Johns Hopkins, published 2019).
Each block holds one binder with its values, some of them ahead of it.

Tests used:
Human α-syn PFF [1] = biological target: T1, Human α-syn PFF (human, UniProt P37840 1-140); assay: expression cloning screen of 352 transmembrane proteins in SH-SY5Y cells
[2] = biological target: T2, α-syn-biotin PFF (biotin-labelled α-synuclein pre-formed fibrils) (mouse, UniProt O55042 1-140); assay: alkaline phosphatase binding assay on cultured cortical neurons, WT minus LAG3-/-
[3] = biological target: T2, α-syn-biotin PFF (biotin-labelled …); assay: cell surface binding assay on cells overexpressing the deletion mutant
Human α-syn PFF [4] = biological target: T1, Human α-syn PFF; assay: expression cloning screen in SH-SY5Y cells, streptavidin-AP staining
[5] = biological target: α-syn-biotin PFF (biotin-labelled α-synuclein pre-formed fibrils) (mouse, UniProt O55042 1-140); assay: cell surface binding on LAG3-overexpressing SH-SY5Y cells, Scatchard analysis; 0% or 0.1% Triton X-100 (the legend marks both values only 'TX-100')

B2: mouse LAG3 (receptor)
chain: GPGKELPVVWAQEGAPVHLPCSLKSPNLDPNFLRRGGVIWQHQPDSGQPTPIPALDLHQGMPSPRQPAPGRYTVLSVAPGGLRSGRQPLHPHVQLEERGLQRGDFSLWLRPALRTDAGEYHATVRLPNRALSCSLRLRVGQASMIASPSGVLKLSDWVLLNCSFSRPDRPVSVHWFQGQNRVPVYNSPRHFLAETFLLLPQVSPLDSGTWGCVLTYRDGFNVSITYNLKVLGLEPVAPLTVYAAEGSRVELPCHLPPGVGTPSLLIAKWTPPGGGPELPVAGKSGNFTLHLEAVGLAQAGTYTCSIHLQGQQLNATVTLAVITVTPKSFGLPGSRGKLLCEVTPASGKERFVWRPLNNLSRSCPGPVLEIQEARLLAERWQCQLYEGQRLLGATVYAAESSSGAHSARRISGDLKGGHLVLVLILGALSLFLLVAGAFGFHWWRKQLLLRRFSALEHGIQPFPAQRKIEELERELETEMGQEPEPEPEPQLEPEPRQL
notes: whole, on cells; In the in vivo co-IP the protein came from brain stem lysates of mice; also called LAG3 full-length (FL); neuronal LAG3
Kd [2]: 103 nM

B3: mouse LAG3 deletion mutant ΔD1 (receptor)
chain: IASPSGVLKLSDWVLLNCSFSRPDRPVSVHWFQGQNRVPVYNSPRHFLAETFLLLPQVSPLDSGTWGCVLTYRDGFNVSITYNLKVLGLEPVAPLTVYAAEGSRVELPCHLPPGVGTPSLLIAKWTPPGGGPELPVAGKSGNFTLHLEAVGLAQAGTYTCSIHLQGQQLNATVTLAVITVTPKSFGLPGSRGKLLCEVTPASGKERFVWRPLNNLSRSCPGPVLEIQEARLLAERWQCQLYEGQRLLGATVYAAESSSGAHSARRISGDLKGGHLVLVLILGALSLFLLVAGAFGFHWWRKQLLLRRFSALEHGIQPFPAQRKIEELERELETEMGQEPEPEPEPQLEPEPRQL
notes: whole, on cells; Expressed in HEK293FT cells; also called D1 domain deletion mutant
binding result [3]: no binding

B5: LAG3 overexpressed in transfected cells (SH-SY5Y; HEK293FT) (receptor)
chain: LQPGAEVPVVWAQEGAPAQLPCSPTIPLQDLSLLRRAGVTWQHQPDSGPPAAAPGHPLAPGPHPAAPSSWGPRPRRYTVLSVGPGGLRSGRLPLQPRVQLDERGRQRGDFSLWLRPARRADAGEYRAAVHLRDRALSCRLRLRLGQASMTASPPGSLRASDWVILNCSFSRPDRPASVHWFRNRGQGRVPVRESPHHHLAESFLFLPQVSPMDSGPWGCILTYRDGFNVSIMYNLTVLGLEPPTPLTVYAGAGSRVGLPCRLPAGVGTRSFLTAKWTPPGGGPDLLVTGDNGDFTLRLEDVSQAQAGTYTCHIHLQEQQLNATVTLAIITVTPKSFGSPGSLGKLLCEVTPVSGQERFVWSSLDTPSQRSFSGPWLEAQEAQLLSQPWQCQLYQGERLLGAAVYFTELSSPGAQRSGRAPGALPAGHLLLFLILGVLSLLLLVTGAFGFHLWRRQWRPRRFSALEQGIHPPQAQSKIEELEQEPEPEPEPEPEPEPEPEPEQL
Kd [5]: 71 nM

Now from value to binder:

binding result (Human α-syn PFF [1]): binds
B1: APLP1 (NM_005166) expressed in SH-SY5Y cells (Origene GFC-transfection array clone) (receptor)
chain: SLAGGSPGAAEAPGSAQVAGLCGRLTLHRDLRTGRWEPDPQRSRRCLRDPQRVLEYCRQMYPELQIARVEQATQAIPMERWCGGSRSGSCAHPHHQVVPFRCLPGEFVSEALLVPEGCRFLHQERMDQCESSTRRHQEAQEACSSQGLILHGSGMLLPCGSDRFRGVEYVCCPPPGTPDPSGTAVGDPSTRSWPPGSRVEGAEDEEEEESFPQPVDDYFVEPPQAEEEEETVPPPSSHTLAVVGKVTPTPRPTDGVDIYFGMPGEISEHEGFLRAKMDLEERRMRQINEVMREWAMADNQSKNLPKADRQALNEHFQSILQTLEEQVSGERQRLVETHATRVIALINDQRRAALEGFLAALQADPPQAERVLLALRRYLRAEQKEQRHTLRHYQHVAAVDPEKAQQMRFQVHTHLQVIEERVNQSLGLLDQNPHLAQELRPQIQELLHSEHLGPSELEAPAPGGSSEDKGGLQPPDSKDDTPMTLPKGSTEQDAASPEKEKMNPLEQYERKVNASVPRGFPFHSSEIQRDELAPAGTGVSREAVSGLLIMGAGGGSLIVLSMLLLRRKKPYGAISHGVVEVDPMLTLEEQQLRELQRHGYENPTYRFLEERP
notes: whole, on cells; also called amyloid beta (A4) precursor-like protein 1

binding result (Human α-syn PFF [4]): binds
B4: LAG3 (NM_002286) expressed in SH-SY5Y cells (Origene GFC-transfection array clone) (receptor)
chain: B5 chain
notes: The clone of the screen is named by NM_002286
